Experimental data from patent US20260242478A1 (published 2026).
Where no end group is shown, it is not given here.

Assays:
[1] = target: T1, PSMA Fab (biotinylated (site not stated)); experiment: clonal phage ELISA on captured PSMA Fab, wells pre-incubated with PSMA antigen as competitor; anti-M13 HRP detection
T1 construct: Biotinylated PSMA Fab captured on neutravidin coated plates in the phage ELISA; also called Anti-PSMA Fab; 006 PSMA Fab

[2] = target: T1, PSMA Fab; experiment: clonal phage ELISA on biotinylated PSMA Fab captured on neutravidin plates, blocking buffer alone; anti-M13 HRP detection
Experimental: (§1) Clonal phage were harvested as crude supernatants and screened via standard ELISAs. […] Prior to the addition of clonal phage. wells were incubated with blocking buffer and PSMA antigen or blocking buffer alone. Without washing or aspirating, clonal phage supernatants were then added to the wells and incubated for a short time. Wells were then washed followed by detection of bound phage using a horse radish conjugated anti-M13 antibody.

[3] = target: T2, PSMA Fab (006 PSMA Fab) (biotinylated (site not stated)); experiment: clonal phage ELISA on biotinylated PSMA Fab captured on neutravidin, anti-M13-HRP detection;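 note: crude clonal phage supernatants added to wells preincubated with PSMA antigen in blocking buffer or with blocking buffer alone, brief binding period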
T2 construct: also called Anti-PSMA Fab; anti-PSMA Fab

[4] = target: T2, PSMA Fab (006 PSMA Fab); experiment: clonal phage ELISA on captured PSMA Fab, wells pre-incubated with PSMA antigen as competitor
Experimental: as §1

[5] = target: T3, PSMA Fab (006 PSMA Fab); experiment: phage ELISA: clonal phage supernatant on biotinylated PSMA Fab captured on neutravidin plate, wells pre-incubated with PSMA antigen as competitor; anti-M13 HRP detection
T3 construct: also called Anti-PSMA Fab
Experimental: as §1

[6] = target: T3, PSMA Fab (006 PSMA Fab); experiment: phage ELISA: clonal phage supernatant on biotinylated PSMA Fab captured on neutravidin plate, blocking buffer alone; anti-M13 HRP detection;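 note: crude clonal phage supernatants added to wells preincubated with blocking buffer, incubated briefly, bound phage detected with a horseradish-conjugated anti-M13 antibody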
Experimental: as §1

## EGRYCVPEWMCQGF [Phage-3335]
[1]
  phage binding ELISA signal: 0.0864
[2]
  phage binding ELISA signal: 1.84

B1: Phage-3340 (peptide)
peptide: MHFHCKPAWMCQGL
modifications: cysteine pairing not given here; also: fused to pIII of bacteriophage
notes: not shown: fused to pIII of the bacteriophage
[3]
  Phage binding ELISA signal, Anti-PSMA Fab: 1.83
[4]
  phage binding ELISA signal (Anti-PSMA Fab with PSMA): 0.0998

## IDRMCKPVWMCEGF [Phage-3334]
[1]
  phage binding ELISA signal: 0.123
[2]
  phage binding ELISA signal: 1.84

B2: Phage-3341 (peptide)
peptide: QYPVCKPAWMCEGF
modifications: cysteine pairing not given here; also: fused to pIII of bacteriophage
notes: as for B1
[3]
  Phage binding ELISA signal, Anti-PSMA Fab: 1.83
[4]
  phage binding ELISA signal (Anti-PSMA Fab with PSMA): 0.0971

## MEAMCRPAWMCAGF (cysteine pairing not given here; also: fused to pIII of bacteriophage) [Phage-3330]
[1]
  phage binding ELISA signal: 0.0662
[2]
  phage binding ELISA signal: 1.84

B3: Phage-3355 (Peptide-180 library peptide) (peptide)
peptide: IGLLCAPKWMCEGF
modifications: cysteine pairing not given here; also: fused to pIII of bacteriophage
notes: tested as crude clonal phage supernatant
[5]
  phage binding ELISA signal: 0.0676
[6]
  phage binding ELISA signal: 1.82

## PELWCVPSWMCEGF [Phage-3332]
[1]
  phage binding ELISA signal: 0.0867
[2]
  phage binding ELISA signal: 1.84

B4: Phage-3354 (Peptide-180 library peptide) (peptide)
peptide: GQMYCKPSWMCNGF
notes: as for B3
[5]
  phage binding ELISA signal: 0.0788
[6]
  phage binding ELISA signal: 1.82

B5: Phage-3336 (peptide)
peptide: IVDICKPSWMCEGF
modifications: cysteine pairing not given here; also: fused to pIII of bacteriophage
notes: as for B1
[3]
  Phage binding ELISA signal, Anti-PSMA Fab: 1.84
[4]
  phage binding ELISA signal (Anti-PSMA Fab with PSMA): 0.0649

B6: Phage-3344 (peptide)
peptide: MERLCMPSWMCGGF
modifications: cysteine pairing not given here; also: fused to pIII of bacteriophage
notes: as for B1
[3]
  Phage binding ELISA signal, Anti-PSMA Fab: 1.83
[4]
  phage binding ELISA signal (Anti-PSMA Fab with PSMA): 0.0822

B7: Phage-3339 (peptide)
peptide: TASMCKPPWMCLGF
modifications: cysteine pairing not given here; also: fused to pIII of bacteriophage
notes: as for B1
[3]
  Phage binding ELISA signal, Anti-PSMA Fab: 1.83
[4]
  phage binding ELISA signal (Anti-PSMA Fab with PSMA): 0.0684

## VNELCIPSWMCNGF [Phage-3331]
[1]
  phage binding ELISA signal: 0.0845
[2]
  phage binding ELISA signal: 1.84

B8: Phage-3350 (Peptide-180 library peptide) (peptide)
peptide: GDIRCVPEWMCSGL
modifications: cysteine pairing not given here; also: fused to pIII of bacteriophage
notes: as for B3
[5]
  phage binding ELISA signal: 0.0749
[6]
  phage binding ELISA signal: 1.82

B9: Phage-3348 (peptide)
peptide: YEQRCVPVWMCEGF
notes: as for B1
[3]
  Phage binding ELISA signal, Anti-PSMA Fab: 1.82
[4]
  phage binding ELISA signal (Anti-PSMA Fab with PSMA): 0.0675

B10: Phage-3338 (peptide)
peptide: VDALCRPSWMCIGF
modifications: cysteine pairing not given here; also: fused to pIII of bacteriophage
notes: as for B1
[3]
  Phage binding ELISA signal, Anti-PSMA Fab: 1.84
[4]
  phage binding ELISA signal (Anti-PSMA Fab with PSMA): 0.0688

B11: Phage-3349 (peptide)
peptide: HIKECTPRWMCVGF
modifications: cysteine pairing not given here; also: fused to pIII of bacteriophage
notes: as for B1
[3]
  Phage binding ELISA signal, Anti-PSMA Fab: 1.82
[4]
  phage binding ELISA signal (Anti-PSMA Fab with PSMA): 0.078

B12: Phage-3352 (Peptide-180 library peptide) (peptide)
peptide: VDHVCRPIWMCIGF
notes: as for B3
[5]
  phage binding ELISA signal: 0.0934
[6]
  phage binding ELISA signal: 1.82

B13: Phage-3342 (peptide)
peptide: MEPVCKPKWMCQGF
modifications: cysteine pairing not given here; also: fused to pIII of bacteriophage
notes: as for B1
[3]
  Phage binding ELISA signal, Anti-PSMA Fab: 1.83
[4]
  phage binding ELISA signal (Anti-PSMA Fab with PSMA): 0.07

B14: Phage-3337 (peptide)
peptide: LEVLCKPTWMCVGF
modifications: cysteine pairing not given here; also: fused to pIII of bacteriophage
notes: as for B1
[3]
  Phage binding ELISA signal, Anti-PSMA Fab: 1.84
[4]
  phage binding ELISA signal (Anti-PSMA Fab with PSMA): 0.078

B15: Phage-3345 (peptide)
peptide: GELKCIPPWMCEGF
modifications: cysteine pairing not given here; also: fused to pIII of bacteriophage
notes: as for B1
[3]
  Phage binding ELISA signal, Anti-PSMA Fab: 1.83
[4]
  phage binding ELISA signal (Anti-PSMA Fab with PSMA): 0.0808

B16: Phage-3343 (peptide)
peptide: TAPMCKPEWMCVAL
modifications: cysteine pairing not given here; also: fused to pIII of bacteriophage
notes: as for B1
[3]
  Phage binding ELISA signal, Anti-PSMA Fab: 1.83
[4]
  phage binding ELISA signal (Anti-PSMA Fab with PSMA): 0.0952

B17: Phage-3351 (Peptide-180 library peptide) (peptide)
peptide: VRPMCEPVWMCMGF
notes: as for B3
[5]
  phage binding ELISA signal: 0.0972
[6]
  phage binding ELISA signal: 1.82

B18: Phage-3353 (Peptide-180 library peptide) (peptide)
peptide: SEHFCRPAWMCTGF
notes: as for B3
[5]
  phage binding ELISA signal: 0.0801
[6]
  phage binding ELISA signal: 1.82

B19: Phage-3346 (peptide)
peptide: SEYRCVPNWMCSGF
modifications: cysteine pairing not given here; also: fused to pIII of bacteriophage
notes: as for B1
[3]
  Phage binding ELISA signal, Anti-PSMA Fab: 1.83
[4]
  phage binding ELISA signal (Anti-PSMA Fab with PSMA): 0.0791

B20: Phage-3347 (peptide)
peptide: QSPMCKPDWMCLGF
modifications: cysteine pairing not given here; also: fused to pIII of bacteriophage
notes: as for B1
[3]
  Phage binding ELISA signal, Anti-PSMA Fab: 1.83
[4]
  phage binding ELISA signal (Anti-PSMA Fab with PSMA): 0.0728

## IEFLCKPMWMCNGF [Phage-3333]
[1]
  phage binding ELISA signal: 0.0658
[2]
  phage binding ELISA signal: 1.84
